US6800467B1, “Polypeptides having aminopeptidase activity and nucleic acids encoding same” (Novozymes Biotech, Inc., priority 1997, dated 2004)

Experiments:
Type in all cases: biochemical
soy bean meal tablets = assay: Degree of hydrolysis (DH) assay, soy; conditions: vs 3 LAPUs FLAVOURZYME alone, 50° C., 18 hours
Protocol: The purified aminopeptidase II described in Example 11 was tested in degree of hydrolysis assays using soy, wheat gluten, and casein as substrates according to the following procedure.
The degree of hydrolysis (DH) assays were performed at 50° C. for 18 hours as a mini-hydrolysis on a 10 ml scale using soy bean meal tablets, wheat gluten meal tablets, and sodium-caseinate at a 2% concentration adjusted to pH 7, if necessary, with no pH adjustment during hydrolysis. The hydrolysates were inactivated at 85° C. for 3 minutes in a waterbath. The enzymes used were FLAVOURZYME™ and aminopeptidase II. The enzymes were dosed as follows. […] Upon hydrolysis, p-nitroanilide is liberated turning the solution yellow which is monitored 405 nm.
The degree of hydrolysis (DH), as defined as described by Adler-Nissen (1986, Enzymic Hydrolysis of Food Proteins, Elsevier Applied Science Publishers), was determined by reaction of the supernatant with OPA (ortho-phtaldialdehyde, Sigma Chemical Co., St. Louis, Mo.) according to the following procedure The hydrolysate was diluted 100-fold into distilled water. […] The solution was then shaken well and after 2 minutes exactly, the absorbance at 340 nm was measured and compared to the absorbance of a 0.95 mM L-serine (distilled water) solution after subtraction of the blank value (water reacted with OPA reagent). […]

[1] = Kinetic parameters (Lineweaver-Burke plot) at pH 7.5; conditions: for kcat: average molecular weight of 97 kDa used
Protocol: The kinetic parameters for various aminopeptidase II substrates was determined using the following protocol. Purified aminopeptidase II with an A280 of 0.581 was used. Each substrate was dissolved in DMSO to a concentration of 100 mg/ml and then diluted 50 fold in 50 mM sodium phosphate pH7.5 buffer to 2 mg/ml. The substrates included Leu-pNA, Glu-pNA (Bachem, Torrance, Calif.), and Ala-pNA. In a 96 well microtiter plate, 10 μl of purified aminopeptidase II was incubated with each substrate as follows except 50 µl of purified aminopeptidase II was incubated with Glu-pNA, and the absorbance at 405 nm was measured for 4 minutes:
1. 200 μl of 2 mg/ml substrate+0 μl of 50 mM sodium phosphate buffer pH 7.5
2. 100 μl of 2 mg/ml substrate+100 μl of 50 mM sodium phosphate buffer pH 7.5
3. 50 μl of 2 mg/ml substrate+150 μl of 50 mM sodium phosphate buffer pH 7.5
4. 25 μl of 2 mg/ml substrate+175 μl of 50 mM sodium phosphate buffer pH 7.5

[2] = Temperature stability of the aminopeptidase II, residual activity on Leu-pNA
Protocol: The temperature stability of the aminopeptidase II was determined using the following protocol: 480 μl of 50 mM sodium phosphate buffer pH 7.5 was preincubated at 37°, 45°, 55°, 60°, 65°, 70°, and 75° C. for 30 minutes in a 1.7 ml Eppendorf tube. Then 20 μl of purified aminopeptidase II was added and the sample was then incubated for an additional 20 minutes. The samples were then placed on ice. Once the incubations were completed for all the temperatures, the samples were then assayed for activity using Leu-pNA as substrate.
The assay was performed by mixing 100 μl of the incubation mixtures for the various temperatures with 100 μl of 2 mg/ml Leu-pNA in 50 mM sodium phosphate pH 7.5 buffer at ambient temperature. The absorbance at 405 nm was monitored for 5 minutes.

B1: aminopeptidase II: Recombinant Aspergillus oryzae 1568 (ATCC 20386) aminopeptidase II, 496 amino acids (SEQ ID NO:2), produced in Aspergillus oryzae or Fusarium (protein)
chain: MRSLLWASLLSGVLAGRALVSPDEFPEDIQLEDLLEGSQQLEDFAYAYPERNRVFGGKAHDDTVNYLYEELKKTGYYDVYKQPQVHLWSNADQTLKVGDEEIEAKTMTYSPSVEVTADVAVVKNLGCSEADYPSDVEGKVALIKRGECPFGDKSVLAAKAKAAASIVYNNVAGSMAGTLGAAQSDKGPYSAIVGISLEDGQKLIKLAEAGSVSVDLWVDSKQENRTTYNVVAQTKGGDPNNVVALGGHTDSVEAGPGINDDGSGIISNLVIAKALTQYSVKNAVRFLFWTAEEFGLLGSNYYVSHLNATELNKIRLYLNFDMIASPNYALMIYDGDGSAFNQSGPAGSAQIEKLFEDYYDSIDLPHIPTQFDGRSDYEAFILNGIPSGGLFTGAEGIMSEENASRWGGQAGVAYDANYHAAGDNMTNLNHEAFLINSKATAFAVATYANDLSSIPKRNTTSSLHRRARTMRPFGKRAPKTHAHVSGSGCWHSQVEA
Soy bean meal tablets; 2 LAPUs aminopeptidase II added to 3 LAPUs FLAVOURZYME
  increase of absolute DH: at least 8%
Soy bean meal tablets; 5 LAPUs aminopeptidase II added to 3 LAPUs FLAVOURZYME
  increase of absolute DH: ≥ 10%
[1]; substrate Ala-pNA, enzyme of Example 15
  Km: 1490 µM
[1]; substrate Glu-pNA
  kcat: 0.137 s⁻¹
[1]; substrate Glu-pNA, enzyme of Example 15
  Km: 1170 µM
[1]; substrate Leu-pNA
  kcat: 3.848 s⁻¹
[1]; substrate Leu-pNA, enzyme of Example 15 (produced by Fusarium)
  Km: 5780 µM
[2]; 20 minutes at 37° C., pH 7.5, no substrate (reference)
  Percent activity relative to 37° C.: 100
[2]; 20 minutes at 45° C., pH 7.5, no substrate
  Percent activity relative to 37° C.: 101
[2]; 20 minutes at 55° C., pH 7.5, no substrate
  Percent activity relative to 37° C.: 99
[2]; 20 minutes at 60° C., pH 7.5, no substrate
  Percent activity relative to 37° C.: 90
[2]; 20 minutes at 65° C., pH 7.5, no substrate
  Percent activity relative to 37° C.: 73.7
[2]; 20 minutes at 70° C., pH 7.5, no substrate
  Percent activity relative to 37° C.: 64.6
[2]; 20 minutes at 75° C., pH 7.5, no substrate
  Percent activity relative to 37° C.: 46
